This note sets out measurements from a protein production outcome set (Wang et al. 2014).

The nature of this data set: label from the status in PepcDB records.
“MTPNAPSTFNNMLLIAVFECRKFLFNLRGMIALIAFALVWGMLLLYPIQGASTLLMQPNIKDLIDGLFGNNALNVLFDWPVAEMAIFWCFALYLFPMFSILIAADQFSSDKTRGTLRFYTIRTSKDSLLFGRFLGQILIQGLLILLTILATIALALSRDASLLLPAISSGALVGVNLLIVILPFTAVMTLLSLYASTARQAMVLATILWTVVSIALLILGNESRLFEGLQWLLPGAQLSNMINTNGLNSLAYAPIPLLQTAIALFLGRIYFQRSQL”: the protein production entry was “failed”.
As to “MMLLLPEFGYVSLLLAVCVGVATALLTFSGYTLRWSGTYRLARCWTLVLFGLVLFAFVALTLSVVQDDFSVNYVAQHSHRDLPLGLKIAAVWGGHEGSLLLWLLCLSGWSATFACRYRKAMSDLFPLTLAMLAVIATALLVFIVFFSDPFVRLFPPAVAGRDLNPMLQHIGLILHPPLLYLGYGGLTVSAALALAALIHGEFTAPAAWICWRWTLPAWSLLTLGIILGSWWAYNELGWGGWWFWDPVENASLLPWLTASALLHSLSVTRMRGIFRHWSLILALLTFILCLLGTLIVRSGILVSVHAFALEHDRAVPLFILFACLSMAALAVYGWRAQLVHSAARFSGWSREMAILLVLLLFSAVALVVLLGTLYPMIYGLAGWGKISVGAPYFNRVLLPFAGLMLLLIGVAAGGYWKRSTRWPVWHLGVTLAVGVVTALVLWPYGYDVALASGLIGWVMAAQWLQPLLALRQQLPALLAHTGVVLFALGIAFSAGSKQEISANVGQGEQVTLGDYQFHFLQLDLVAAQNYTAEQAVIAIYRGDSPIARVIPERRYYNARKQQMIEPGIAWGPIREWYAVMGEKTGENRYAMRFYVQTGVRWVWGGGMLMVAGALLGWFRGRRVYD”, the protein production entry is given as “failed”.
To “ILFSVVIGSFTPAHPIASETNPKVENAKDAPEIEPFSEQAVEELHRQKKPLFIYFSADWCLTCKVNEKMAIDRDSTRQAFRQKGIVTLHGDWTNGDPEITHFLSKMHRSGIPLYLYYPADGEIQI” belongs “failed”; to “MTNLEAKENNLIKDLASKQRVAIAYSGGIDSTYLLKVAVDELGKDNVLAMVVNSELFLDDEYNKALELAKDLGANAMGVSMSELADERIAANTPESWYYSKQLLYRTIKKAAAEKGFDIVLDGMIMDDNADFRPGMKARTEEGIVSSLQDADLYKSEIRELAKDRGISNWNKVASC”, “not failed”.
On to “MTLGTNQVSKTHSFMTVSLIELWERFGYYGMQALIVYFMVQRLGFDDSRANLVWSACAALIYVSPAIGGWVGDKILGTKRTMLLGAGILSVGYALMTVPTENTWFMFSALGVIVVGNGLFKPNAGNLVRKIYEGDDSKIDSAFTIYYMAVNVGSTFSMLLTPWIKDYVNAQYGNEFGWHAAFAVCCVGILVGLGNYALMHKSLANYGSEPDTRPVNKKSLAIVLALAALSVVASAIILEYEDVARVFVYAAGVAVLGIFFHLIRTSEPSERAGLIAALILTVQTVFFFIFYQQMSTSLALFALRNVDWDFQVFGTHLWTWSPAQFQALNPIWIMVLSPVLAWSYSWAGRNNKDFSIAAKFALGFAVVAIGFFIYGFAGQFAVNGKTSSWVMIWGYASYSLGELLVSGLGLAMIARYVPARMGGFMMGAYFVASGISQYLGGVVANFASVPQDLVDPLQTLPVYTNLFNKLGVAAVVCTIIALAVLPLMRRLTESHHAHSSIENNAAASLRDVKAEQ”, for which the protein production result was “failed”.
The value for “MSKPHALRGVLANLISESQSPLTPESIIREFRATSDRRLPACDLIKVLVSISEKRPNFAEVTKEISHILQNKDPMYALLVFVERYSECKPVSESSSSTSLSAMGLPHGNKTSDVNSAAGSVPTTLAIASTSTILTTSQNVSGSTRLSLTQSQDFPTSTPVNCKKATESDTTPVVFVRRGPMDRNRGAGKDERNDLSVIKERVLNAVSDQSLSGYRSVTNKTGNSPKSMPNDLVTLTDVPDEYRTHLLWEYYKVDGDKVPRAEIAAMPLLSQESMLLDELLHCLTGIRESLLVPQKPIISAVGLAKYDTDFDIHTHLDRSLTHQVREILPLASYFMGVQKIIAATDGLGQVMNSLNEALQELTHDFYLIIVQAEQELRHNRLTLQKLLYYLQPTMWVMHEVWSSLVIIQLSDSRDAEVLTYLHERIKRLEGNKDAQQLIIGLVRKAAKPYMRMLQMWIQKGVIVDRHREFLVVDNEVIHRDELPEHYSDDYWERRYTLRDEQIPSFLAKYSDKILRTGKYLNVIRQCGKRVMPTQEMNLEFDPTSERHVSVINDAYYFAARMLLDVLLTENDLMGHLQSVKRYLLLNQGDFTMQFMDACEDELTKNVDHVLPMTLENLLGLTLRISSARNDPYKDDLHCELLPYDLVTQMSKIMKKEENWQAQPRLDLSGLECFAFTYEVKWPCSLVLNHISISKYQMLFRQLFYCKHVERQLCKIWKENSIARQFEPQAASLYRAAFTLRQRMMNAIQNLEYYMMIEIIEPNWHIFIEKMKTVENVDNVLRLHQDFLDSCLKNCMLTESSHLNRSIFKLCKICLKYCEFIQITQRYFQDAELRSMVRDSADSSESEQESLHCPQIETPLDPTDTFSERVRRFDLEFTQLLISFLKQINSMAKKNTADCFMNLVHRINFNAFYTDQMDKMCVEDAIG” was “failed”.
To “MSLKITSIEVFDCELKKRDQTMSSYNPVLIRVNTDSGLSGIGEVGLAYGAGAKAGVGIIRDLAPLIVGEDPLNIEKIWEFFFRKTFWGMGGGNVFYAGMSAIDIALWDIKGKYLGVPVYQLLGGKTNEKLRTYASQLQFGWGDKRHILVTPEEYAEAARAALDDGYDAIKVDPLEIDRNGDDCVFQNRNRNYSGLLLADQLKMGEARIAAMREAMGDDADIIVEIHSLLGTNSAIQFAKAIEKYRIFLYEEPIHPLNSDNMQKVSRSTTIPIATGERSYTRWGYRELLEKQSIAVAQPDLCLCGGITEGKKICDYANIYDTTVQVHVCGGPVSTVAALHMETAIPNFIIHEHHTNAMKASIRELCTHDYQPENGYYVAPEQPGLGQELNDEVVKEYLAYVIKEGHHHHHH” belongs “not failed”; to “MNWQLKSKEAEVMNKLSLFLGCIVPNRYPGIEKATKLCLQRLEIDACDLPGASCCPAPGVFKSFDKATWLALASRNIVLSERMERDVLTVCNGCYGSLADANMELKKDPEMKACTNSCLKEIGMEFRGTSEIRHIIEFLYKEFGPEKLKEYITTPLDLKVALHYGCHLIKPSKDRNLGDTESPVFFDELVEATGAKSVDYTDKMMCCGAGGGVRSGYADESLEMLEHKLDCICKAGVDCIVNACPFCHLQFDRGQIAVNEKFGTDYSIPVLHYSQLLGLALGFSPDQLGIEQNAVQNIEFLAKIYEISAGLS”, “failed”; to “MIMTSDIKLLDYLRVRRSTPALQLSEPGPSKGEIEEILRLAVRVPDHGKLAPWRFVVYRGEERVRLSEAALRIALEKNPDLDLQQQEAERTRFTRAPVVIAVISTAKPHFKIPEWEQVMSAGAVCLNVIFAANASGFAANWLTEWLAFDPAFLAEIGVSAEEKVAGYIHIGSTTFPPVERPRPELADVVTWVGDV”, “not failed”.
Turning to “MESVAFIQWCLEHLNYWTITLLMTIESSFIPFPSEVIIPPAAYKAAVNDELNIYLVVLFATIGADIGALINYYLAKWLGRPIIYKFANSRIGHMCLIDEAKVQHAESYFDKHGALSTFIGRLIPAVRQLISIPAGLARMKMHTFLLYTTIGAGLWNTILAVIGYYLSTVPGIESEEQLIAKVTEYSHEIGYCFIAIGIFIVGFLVYKGMKKK”, the protein production entry was “failed”.
“MKDREIFAGLSTTVPFVLRLDGRSFHRFSKDRYKKPYDKVFSDAMVKTARALVTDSGLSPSFAYTFSDEISLYVPAPVFDCRVEKLASVSAAFAASAFTLYAGASEPLAFDARVIPIEEGLFPAYLSWRQAEAWRNHMNGYAQKILQDEGVSPTNAQKQLDGMNAAALHEFAFSRGVNLALTPAWERRGICIYRDVVMRDGYNPIKDEKVSVERTIAVIDEDVPLFKSPEGTAWVLSKIRLEHHHHHH”: the protein production result is given as “failed”.
To “MLLSSCQSLFSPAYQSTLRPSDNPQTVEQVQKNDPRAQMGAREHPRIVASYGGEYRDAKTERLVARIAGALTAVSENPQQSYRITILNSPAINAFALPGGYLYVTRGLLALANDASEVAAVLSHEMGHVTANHGIERQRREEAEVIASRVVAEVLSSDLAGKQALARGKLRLAAFSRQQELQADVIGVRMLGEAGYDPYASPRFLDSMAAYARFSSADPENDQSLDFLSSHPNTPQRIELARRHARAFGQEGQVGDRGRDWFLDGIDGLLYGDSPQEGYVRGQTFLHGTLGIRFDVPEGFVIDNKVEAVLATGPGDMAIRFDGVADPKQTSLANYLTSGWVAGLLPETVKETQINGLEAATARASADKWDFDVTVIRVGQQIFRFLTAVPKGNTQLDSIANVLRTSFRKMTPQEIASLKPLRVRVVTVKPGETVATMAARMMGTERKLDMFRMINAMSATATLQPGQRVKIISELEHHHHHH” belongs “failed”.
Consider “MVQTRSQDDSKDKGKEVEGANPLEERMLRLESMMDAHSKEMMKHMAEMTMVMSRSTAHKLREEHSSGERSLPRSSTSTDDRVGYQDHRRDQGQDQDHRRDQQQNQDHRRDNRLDQVRYEPQQQHYGNLTRLGKIDLPRFDGTGIKEWLFKVEEFFGIDFTPADLKVKMVAIHFDSHAATWHHSFMQSGVGLEVLYDWPGYVRLLK”, for which the protein production result is “failed”.
To “MHETKVKLSNGLELHVEVGGNPDHPTILLIMGLGAQMLFWPDFFCKSLIDQGFYVIRFDNRDIGLSSKIRHKGKRLNTLKLMSRFTLGLGNQGAPYTLYDMAEDVSLLLEAMRIKKVNVIGASMGGMIAQIIAAKYPEKVEKLALMFTSNNQPLLPPPFPKQLFSLIGKPKSSDEDGIINHSLKLFEIIGSPGYVNQVEAIQTARKLYQRSYHPAGVLQQFLAILCTGSLLQLDKQISQPTLVIHGSRDRLLPPSHGKAVAKAIKGAKFELIQGMGHDIPPHFIPQLSYLFAHHFRS” belongs “failed”; to “MSKIAIIVDSSSYIPKDQLKKHHIYVIDNPIIFGETIYHEFNWPVNADFYQQMATTPIQPTTSQPAPGDFEAAFQAAKDDGYKQALVITLSSGFSGTFLNTSAIASSHSDIDIHVWDSRIACLGAGNQALLAAYLAEKGIGIDEILSKLQILRSRTGVFFVVDSISHLQRTGRLSGGQALVAGLLNIKPILNINTNKQGKIDAVAKTRKMSGAWRYIEKHFAKIADNYQRAGWPMRVSILDADNPELADAWLKRAEKRWPEIIFERGIIGPLVGVHIGGKAVGLIWAEDYKRLED”, “failed”.
The value for “MIIRPIIKNDDQAVAQLIRQSLRAYDLDKPDTAYSDPHLDHLTSYYEKIEKSGFFVIEERDEIIGCGGFGPLKNLIAEMQKVYIAERFRGKGLATDLVKMIEVEARKIGYRQLYLETASTLSRATAVYKHMGYCALSQPIANDQGHTAMDIWMIKDL” was “failed”.
Regarding “MFAVPYHQHLWRIKLALIAQNHLQLIIEVGIILYAAMVFILNLAPMSLSMVLFICIVLGIGFNIIFGLDVVALFMSFGQSEFTHPFGPIALLVTVSSLAALAIMEESGVDVRGLRGFVYLLMAGITLFGGLMHRSFLLLWLLGLFMGLFIISKSMRQRSLITVKRVAGFALIAVAGFGGLELISRVLGMTVLSPLLRIERLETFSLPSMKLVIKNTTLLGHNPMSSYWGELSSGFADGYISLPLQLILFFGLPFPVFYGILVNKKDVIDYMVPGVFGWAYDFGYITMFFLLIWCVGIIIMGLRMLSIYRERRENGSRSYLGREVLLTGALAAFMSQAIIGLFVINRTINGTALLTFIFLSSLIFANSVGLKE”, the protein production entry was “failed”.
As to “MGLFDFLKKGLQKTKETFFGRVVKLLKGKKLDDETREELEELLIQADVGVETTEYILERLEEKDGDALESLKEIILEILNFDTKLNVPPEPPFVIMVVGVNGTGKTTSCGKLAKMFVDEGKSVVLAAADTFRAAAIEQLKIWGERVGATVISHSEGADPAAVAFDAVAHALARNKDVVIIDTAGRLHTKKNLMEELRKVHRVVKKKIPDAPHETLLVIDATTGQNGLVQAKIFKEAVNVTGIILTKLDGTAKGGITLAIARELGIPIKFIGVGEKAEDLRPFDPEAFVEVLLSE”, the protein production result is “not failed”.
